From PMC2917276 (Acta Crystallographica Section D: Biological Crystallography, 2010)
Residue numbers refer to the chain shown, from its start.

B1: C836 Fab (Fab, V domains shown)
VH: QVTLKESGPGILQPSQTLSLTCSFSGFSLSTYGMGVGWIRQPSGKGLEWLAHIWWDDVKRYNPALKSRLTISKDTSGSQVFLKIASVDTSDTATYYCARMGSDYDVWFDYWGQGTLVTVSA
VL: DVQITQSPSYLAASPGETITLNCRASKSISKYLAWYQEKPGKTNKLLIYSGSTLQSGIPSRFSGSGSGTDFTLTISSLEPEDFAMYFCQQHNEYPYTFGGGTKLEIK
notes: mouse VH of hybridoma mAb C836 joined to the human G1 constant region (Fab part); mouse VL of hybridoma mAb C836 joined to the human kappa constant region; Chimeric Fab; also called His-tagged C836 Fab
B2: H2L6 Fab (Fab, V domains shown)
VH: QVTLKESGPVLVKPTETLTLTCTVSGFSLSTYGMGVGWIRQPPGKALEWLAHIWWDDVKRYNPALKSRLTISKDTSKSQVVLTMTNMDPVDTATYYCARMGSDYDVWFDYWGQGTLVTVSS
VL: EIVLTQSPATLSLSPGERATLSCRASKSISKYLAWYQQKPGQAPRLLIYSGSTLQSGIPARFSGSGSGTDFTLTISSLEPEDFAVYYCQQHNEYPYTFGQGTKLEIK
notes: humanized version of C836 (CDRs grafted into human variable framework segments), human G1 constant domain; humanized version of C836 (CDRs grafted into human variable framework segments), human kappa constant domain
B3: M1295 Fab (Fab, V domains shown)
VH: B2 VH with M34V, M100L
VL: EIVLTQSPATLSLSPGERATLSCRASKSISKYLAWYQQKPGQAPRLLIYSGSTLQSGIPARFSGSGSGTDFTLTISSLEPEDFAVYYCQQHDYPYTFGQGTKLEIK
notes: human G1 constant domain; human kappa constant domain

The binders below were run against T1, Recombinant human IL-13 (human, UniProt P35225) (assay: SEC; Fab mixed with IL-13 at a Fab:IL-13 molar ratio of 1:1.2, 20 min at 277 K; Superdex 200 10/300 in 20 mM HEPES pH 7.5, 0.1 M NaCl; elution compared with the free Fab). Conditions: both partners purified.
T1 construct: interleukin-13, human, recombinant; source: bought: R&D Systems (catalog No. 213-IL/CF), reconstituted in PBS pH 7.4
T1 sequence (P35225 35-143): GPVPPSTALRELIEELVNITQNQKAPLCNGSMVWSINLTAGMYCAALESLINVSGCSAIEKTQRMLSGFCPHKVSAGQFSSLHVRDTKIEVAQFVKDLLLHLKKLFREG
B1: binds.
B2: binds.
B3: binds.
